# Source: the RNAGym collection of RNA variant scans (doi:10.7554/elife.90254)
# B1: LINE1-full (parent)
# chain: UACGUAGGUGGUUUUCCCCUGAUAGUGCUAAGGGGGCCUGGAAGUUUGGACUGGGCAGAGCUCAACACAGCGUGGCAAAGUGGCUGUGGCUAGACUGCCUCUCUGGAUUCCUCGUCACUCAGCAGGGCAUCUCUGAGAGAAAUGCC
# Variants of: B1
# Test: self-cleavage, relative activity (ratio to wild type); higher = more cleavage; in vitro, sequencing; the parent is a self-cleaving ribozyme
row,Variant,self-cleavage
1,G36U U52A,0.64
2,U14C A78U,1.44
3,U23C G83A,1.02
4,U52C C71A,0.13
5,G8A,1.45
6,G10A A65U,0.14
7,U109C A129G,1.3
8,U26A U45C,1.37
9,A79G G114A,1.23
10,A57U G144U,0.3
11,A6G U9A,0.75
12,G75A U104C,1.43
13,U13A U143C,1.51
14,U46A,1.17
15,U73A C111U,1.54
16,U62C G74A,0.04
17,A77U U108G,1.37
18,A121U G127A,0.76
19,U14C C111U,1.14
20,A31U U47A,0.77
21,A64U G144A,0.42
22,G75C U134C,0.58
23,A43G A138U,1.31
24,U96A G127U,0.05

row,Variant,self-cleavage
1,U81C U85C,0.12
2,G53A U132C,1.29
3,A2G U23C,0.69
4,U115A C131U,1.65
5,U26A U108C,1.13
6,U1C A94G,0.24
7,U85A A117G,0.15
8,U12G A136G,1.72
9,A50C U73G,0.79
10,G125A A129U,0.46
11,U12C U132A,1.31
12,A50C A117U,0.92
13,G10A U52A,0.97
14,G27A G34A,0.64
15,A42G G106U,1.1
16,G11C A67G,0.46
17,U102C U112A,1.44
18,U46A A64U,0.46
19,U1A A79G,1.31
20,A31G U130C,1.45
21,U39C A142G,1.18
22,G32A U62C,0.07
23,A67U A117G,0.19
24,G32U U52A,1.85

row,Variant,self-cleavage
1,U112G C128U,2.54
2,G70C G144A,0.15
3,U13A C110A,0.84
4,U46A C145U,1.52
5,G54A A142G,0.83
6,G10A U29C,1.12
7,G11A G139A,1.91
8,U9A U104G,0.98
9,U46C A121C,1.9
10,C19U A78U,1.72
11,C61U U81A,0.02
12,U46C G93U,0.06
13,A121C A142G,1.1
14,U12G U81A,2.33
15,U15C C84G,0.21
16,U14A U143A,0.99
17,U15C U85A,0.1
18,G75A U115A,1.12
19,A2G U15C,0.89
20,A2G U15A,1
21,A2G U108A,1.02
22,C37U U96A,0.04
23,A22G G53U,1.29
24,U96C,0.13

row,Variant,self-cleavage
1,U20C U115A,1.54
2,A2G A121G,1.44
3,U85A A124U,0.08
4,G89A U132C,0.06
5,G93U A107G,0.06
6,A65G G86A,0.02
7,U23A A136U,1.7
8,G48U U119C,1.95
9,U87A A92G,0.13
10,G33A U87C,0.2
11,U1C C113A,0.62
12,C110A G122A,0.9
13,G36C G74U,1.21
14,A67U A92G,0.04
15,A6U G127A,0.59
16,U45A A67G,0.37
17,G33C U96A,0.05
18,U73G U91C,0.29
19,U100C U109A,1.77
20,G10A A78G,0.91
21,U85A C101U,0.06
22,G137U U143C,1.04
23,A2U U46A,0.51
24,U26A U91A,0.44

row,Variant,self-cleavage
1,A30C U52C,0.33
2,G105U U108A,1.12
3,U26A U62A,0.05
4,U45C G80C,1.8
5,U96C G127U,0.19
6,U91C G125A,0.32
7,A92U U134C,0.71
8,C61G A129C,0.03
9,A69U U143C,0.07
10,A65U,0.17
11,U104C G144A,2.03
12,A57G C68A,0.06
13,G125A A138G,1.01
14,U20A A67U,0.13
15,C19U A141U,1
16,U29C A92U,0.81
17,A67U U134C,0.16
18,A121U A140G,1.18
19,A94G U119C,0.38
20,U26C U132A,1.73
21,A6C A22G,0.46
22,A92U U130A,0.67
23,U1G U132C,1.36
24,U14C A64G,0.33

row,Variant,self-cleavage
1,C76U A117U,2.41
2,C17U A64G,0.22
3,U12C A42C,0.85
4,G83A A92U,0.27
5,U14C U81C,1.43
6,A2C U143A,1.85
7,G88A A107C,0.03
8,U102A U115G,2.51
9,G7A U87C,0.07
10,U45C C95U,0.2
11,A30U G72A,1.24
12,C18U G126U,1.62
13,U5C C19U,1
14,A30G A67U,0.1
15,A117G G125U,1.47
16,U100A U132A,0.31
17,G41A A140G,1.05
18,C17U A79U,1.1
19,A31G A92G,0.09
20,A6G U100G,0.95
21,A69G U100A,0.17
22,A24G A59U,1.17
23,U1C U52A,0.88
24,G4A A107U,0.2

row,Variant,self-cleavage
1,C18U G25A,0.39
2,U115C A136G,1.83
3,C56U A69U,0.02
4,A107U A124G,1.29
5,U45C G114A,1.48
6,A31U C131U,1.06
7,U9C U47A,1.18
8,U87C U143C,0.21
9,U104C A129G,2.04
10,A65G U143C,0.08
11,A67U U108C,0.29
12,U130C U134A,1
13,A79G C110U,2.15
14,U15C A141G,1.51
15,A77U G106A,1.31
16,A92G A141G,0.12
17,A77G U115C,2.05
18,A117U A141U,2.24
19,U9C U15A,0.5
20,A6G U119A,1.52
21,U12G C103A,1.15
22,U26G U81C,0.58
23,A64C U115C,0.47
